Results taken from US7960349B2 (Bristol-Myers Squibb Company, priority 2006, dated 2011).
*1 amine or outer side, *2 acyl side, *3 side chain or, on linkers, in order; H or OH if unused. Primed or numbered codes have the meaning given here. Where no end group is shown, it is not given here. [ ]: non-standard residue; d: D form. The star is where a group is joined. X1 = 4‑(2′-methylphenyl)‑3‑pyridylalanine, Cc1ccccc1-c1ccncc1C[C@H](N[*:1])C(=O)[*:2]; Bip(2′-Et-4′-OH-5′-I) = CCc1cc(O[*:3])c(I)cc1-c1ccc(C[C@H](N[*:1])C(=O)[*:2])cc1; Phe(4-(2-Et-4-HO-Ph)) = CCc1cc(O)ccc1-c1ccc(C[C@H](N)C(=O)O)cc1; IMeOp = 3-(1H-imidazol-4-yl)-2-methoxypropanoyl; αMePhe(2-F) = C[C@](N)(Cc1ccccc1F)C(=O)O; αMeP = C[C@@]1(C(=O)O)CCCN1; Moc = COC(=O)*

Legend:
[1] = target: Full-length human glucagon-like peptide 1 receptor (human, UniProt P43220 24-463); assay: cell-based or functional assay
Mouse GLP-1 Receptor = target: T1, Mouse GLP-1 Receptor (mouse, UniProt O35659 22-463); assay: cell-based or functional assay
T1 sequence (looked up): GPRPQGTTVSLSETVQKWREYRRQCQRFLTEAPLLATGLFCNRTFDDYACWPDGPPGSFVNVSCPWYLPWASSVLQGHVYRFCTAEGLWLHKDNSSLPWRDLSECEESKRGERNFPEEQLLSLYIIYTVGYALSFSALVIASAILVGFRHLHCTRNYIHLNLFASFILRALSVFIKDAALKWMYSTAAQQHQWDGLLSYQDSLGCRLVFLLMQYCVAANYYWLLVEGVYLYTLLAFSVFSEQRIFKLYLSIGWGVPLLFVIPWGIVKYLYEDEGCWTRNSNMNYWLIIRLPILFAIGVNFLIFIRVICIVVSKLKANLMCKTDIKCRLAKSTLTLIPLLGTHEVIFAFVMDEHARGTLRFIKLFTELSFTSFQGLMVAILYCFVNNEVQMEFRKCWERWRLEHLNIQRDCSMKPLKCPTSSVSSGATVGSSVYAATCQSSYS

[IMeOp][αMeP]EGT[αMePhe(2-F)]TSD[Phe(4-(2-Et-4-HO-Ph))][X1]-NH2 (also: IMeOp configuration (S or R) not determined) [Compound of SEQ ID NO: 174 (or 173)*]
Mean EC50 (nM), stimulation of cAMP synthesis in CHO cells [1]: 0.024 nM
Mean Emax (%), stimulation of cAMP synthesis in CHO cells [1]: 104%
Mean EC50 (nM), stimulation of cAMP synthesis in CHO cells (Mouse GLP-1 Receptor): 0.273 nM
Mean Emax (%), stimulation of cAMP synthesis in CHO cells (Mouse GLP-1 Receptor): 105%

[IMeOp][αMeP]EGT[αMePhe(2-F)]THD[Phe(4-(2-Et-4-HO-Ph))][X1]-NH2 (also: IMeOp configuration (R or S) not determined) [Compound of SEQ ID NO: 175 (or 176)*]
Mean EC50 (nM), stimulation of cAMP synthesis in CHO cells [1]: 0.03 nM
Mean Emax (%), stimulation of cAMP synthesis in CHO cells [1]: 105%
Mean EC50 (nM), stimulation of cAMP synthesis in CHO cells (Mouse GLP-1 Receptor): 0.084 nM
Mean Emax (%), stimulation of cAMP synthesis in CHO cells (Mouse GLP-1 Receptor): 100%

[IMeOp][αMeP]EGT[αMePhe(2-F)]THD[Phe(4-(2-Et-4-HO-Ph))][X1]-NH2 (also: IMeOp configuration (S or R) not determined) [Compound of SEQ ID NO: 176 (or 175)*]
Mean EC50 (nM), stimulation of cAMP synthesis in CHO cells [1]: 0.03 nM
Mean Emax (%), stimulation of cAMP synthesis in CHO cells [1]: 95.8%
Mean EC50 (nM), stimulation of cAMP synthesis in CHO cells (Mouse GLP-1 Receptor): 0.126 nM
Mean Emax (%), stimulation of cAMP synthesis in CHO cells (Mouse GLP-1 Receptor): 105%

Moc-H[αMeP]EGT[αMePhe(2-F)]TSD[Bip(2′-Et-4′-OH-5′-I)][X1]-NH2 [Compound of SEQ ID NO: 164]
Mean EC50 (nM), stimulation of cAMP synthesis in CHO cells [1]: 0.01 nM
Mean Emax (%), stimulation of cAMP synthesis in CHO cells [1]: 97.2%
Mean EC50 (nM), stimulation of cAMP synthesis in CHO cells (Mouse GLP-1 Receptor): 0.055 nM
Mean Emax (%), stimulation of cAMP synthesis in CHO cells (Mouse GLP-1 Receptor): 103%

Moc-H[αMeP]EGT[αMePhe(2-F)]THD[Phe(4-(2-Et-4-HO-Ph))][X1]-NH2 [Compound of SEQ ID NO: 157]
Mean EC50 (nM), stimulation of cAMP synthesis in CHO cells [1]: 0.026 nM
Mean Emax (%), stimulation of cAMP synthesis in CHO cells [1]: 99.4%
